Bridge positions count the residues as written; N and C are the ends. Square brackets hold non-standard residues; d marks the D form. Ends that are not written are not given here. * marks the point of attachment. Abu(4-SO3H) = N[C@@H](CCS(=O)(=O)O)C(=O)O; PhLac = O=C(O)[C@@H](O)Cc1ccccc1; Carboxymethyl = O=C(O)C*; NSG‑1 = not defined here; NSG‑2 = not defined here
B1: [(CSA-1)^9]Glucagon(aa2-29)-NH2 (peptide)
peptide: SQGTFTSC(Carboxymethyl)YSKYLDSRRAQDFVQWLMNT-NH2
modifications: N-terminus assumed
SMILES: CSCC[C@H](NC(=O)[C@H](CC(C)C)NC(=O)[C@H](Cc1c[nH]c2ccccc12)NC(=O)[C@H](CCC(N)=O)NC(=O)[C@@H](NC(=O)[C@H](Cc1ccccc1)NC(=O)[C@H](CC(=O)O)NC(=O)[C@H](CCC(N)=O)NC(=O)[C@H](C)NC(=O)[C@H](CCCNC(=N)N)NC(=O)[C@H](CCCNC(=N)N)NC(=O)[C@H](CO)NC(=O)[C@H](CC(=O)O)NC(=O)[C@H](CC(C)C)NC(=O)[C@H](Cc1ccc(O)cc1)NC(=O)[C@H](CCCCN)NC(=O)[C@H](CO)NC(=O)[C@H](Cc1ccc(O)cc1)NC(=O)[C@H](CSCC(=O)O)NC(=O)[C@H](CO)NC(=O)[C@@H](NC(=O)[C@H](Cc1ccccc1)NC(=O)[C@@H](NC(=O)CNC(=O)[C@H](CCC(N)=O)NC(=O)[C@@H](N)CO)[C@@H](C)O)[C@@H](C)O)C(C)C)C(=O)N[C@@H](CC(N)=O)C(=O)N[C@H](C(N)=O)[C@@H](C)O
notes: also called peptide no
B2: [(CSA-2)^9]Glucagon(aa2-29)-NH2 (peptide)
peptide: SQGTFTSCYSKYLDSRRAQDFVQWLMNT
HELM: PEPTIDE1{S.Q.G.T.F.T.S.[O=C(O)CCSC[C@H](N[*:1])C(=O)[*:2]].Y.S.K.Y.L.D.S.R.R.A.Q.D.F.V.Q.W.L.M.N.T.[am]}$$$$V2.0; N-terminus assumed
SMILES: CSCC[C@H](NC(=O)[C@H](CC(C)C)NC(=O)[C@H](Cc1c[nH]c2ccccc12)NC(=O)[C@H](CCC(N)=O)NC(=O)[C@@H](NC(=O)[C@H](Cc1ccccc1)NC(=O)[C@H](CC(=O)O)NC(=O)[C@H](CCC(N)=O)NC(=O)[C@H](C)NC(=O)[C@H](CCCNC(=N)N)NC(=O)[C@H](CCCNC(=N)N)NC(=O)[C@H](CO)NC(=O)[C@H](CC(=O)O)NC(=O)[C@H](CC(C)C)NC(=O)[C@H](Cc1ccc(O)cc1)NC(=O)[C@H](CCCCN)NC(=O)[C@H](CO)NC(=O)[C@H](Cc1ccc(O)cc1)NC(=O)[C@H](CSCCC(=O)O)NC(=O)[C@H](CO)NC(=O)[C@@H](NC(=O)[C@H](Cc1ccccc1)NC(=O)[C@@H](NC(=O)CNC(=O)[C@H](CCC(N)=O)NC(=O)[C@@H](N)CO)[C@@H](C)O)[C@@H](C)O)C(C)C)C(=O)N[C@@H](CC(N)=O)C(=O)N[C@H](C(N)=O)[C@@H](C)O
notes: also called peptide no
B3: [A2E3, E16K20(Lactam),D28]G(2~29) (peptide)
peptide: AEGTFTSEYSKYLDERRAKDFVQWLMDT
modifications: lactam 15-19
B4: [(NSG-1)^9]Glucagon(aa2-29)-NH2 (peptide)
peptide: SQGTFTS[NSG‑1]YSKYLDSRRAQDFVQWLMNT-NH2
modifications: reading uncertain
notes: also called peptide no
B5: [PLA6, D9, D28]Glucagon(aa6-29)-NH2 (peptide)
peptide: XTSDYSKYLDSRRAQDFVQWLMDT
modifications: PLA at position 6, N-terminal to residues 7-29; C-terminal amide
B6: [PLA6, D9]Glucagon(aa6-29)-COOH (peptide)
peptide: XTSDYSKYLDSRRAQDFVQWLMNT
HELM: PEPTIDE1{[O=C([C@@H](O)Cc1ccccc1)[*:2]].T.S.D.Y.S.K.Y.L.D.S.R.R.A.Q.D.F.V.Q.W.L.M.N.T}$$$$V2.0; N-terminus assumed
SMILES: CSCC[C@H](NC(=O)[C@H](CC(C)C)NC(=O)[C@H](Cc1c[nH]c2ccccc12)NC(=O)[C@H](CCC(N)=O)NC(=O)[C@@H](NC(=O)[C@H](Cc1ccccc1)NC(=O)[C@H](CC(=O)O)NC(=O)[C@H](CCC(N)=O)NC(=O)[C@H](C)NC(=O)[C@H](CCCNC(=N)N)NC(=O)[C@H](CCCNC(=N)N)NC(=O)[C@H](CO)NC(=O)[C@H](CC(=O)O)NC(=O)[C@H](CC(C)C)NC(=O)[C@H](Cc1ccc(O)cc1)NC(=O)[C@H](CCCCN)NC(=O)[C@H](CO)NC(=O)[C@H](Cc1ccc(O)cc1)NC(=O)[C@H](CC(=O)O)NC(=O)[C@H](CO)NC(=O)[C@@H](NC(=O)[C@@H](O)Cc1ccccc1)[C@@H](C)O)C(C)C)C(=O)N[C@@H](CC(N)=O)C(=O)N[C@H](C(=O)O)[C@@H](C)O
B7: [PLA6, D9]Glucagon(aa6-29)-NH2 (peptide)
peptide: XTSDYSKYLDSRRAQDFVQWLMNT
HELM: PEPTIDE1{[O=C([C@@H](O)Cc1ccccc1)[*:2]].T.S.D.Y.S.K.Y.L.D.S.R.R.A.Q.D.F.V.Q.W.L.M.N.T.[am]}$$$$V2.0; N-terminus assumed
SMILES: CSCC[C@H](NC(=O)[C@H](CC(C)C)NC(=O)[C@H](Cc1c[nH]c2ccccc12)NC(=O)[C@H](CCC(N)=O)NC(=O)[C@@H](NC(=O)[C@H](Cc1ccccc1)NC(=O)[C@H](CC(=O)O)NC(=O)[C@H](CCC(N)=O)NC(=O)[C@H](C)NC(=O)[C@H](CCCNC(=N)N)NC(=O)[C@H](CCCNC(=N)N)NC(=O)[C@H](CO)NC(=O)[C@H](CC(=O)O)NC(=O)[C@H](CC(C)C)NC(=O)[C@H](Cc1ccc(O)cc1)NC(=O)[C@H](CCCCN)NC(=O)[C@H](CO)NC(=O)[C@H](Cc1ccc(O)cc1)NC(=O)[C@H](CC(=O)O)NC(=O)[C@H](CO)NC(=O)[C@@H](NC(=O)[C@@H](O)Cc1ccccc1)[C@@H](C)O)C(C)C)C(=O)N[C@@H](CC(N)=O)C(=O)N[C@H](C(N)=O)[C@@H](C)O
B8: [hCys^9(SO3H)]Glucagon(aa2-29)-NH2 (peptide)
peptide: SQGTFTS[Abu(4-SO3H)]YSKYLDSRRAQDFVQWLMNT-NH2
B9: [desHis^1, desPhe^6, hCys^9(SO3^-), Phe^25, Leu^27]Glucagon-NH2 (peptide)
peptide: SQGTTSXYSKYLDSRRAQDFVQFLLNT
HELM: PEPTIDE1{S.Q.G.T.T.S.[O=C([C@H](CCS(=O)(=O)O)N[*:1])[*:2]].Y.S.K.Y.L.D.S.R.R.A.Q.D.F.V.Q.F.L.L.N.T.[am]}$$$$V2.0; N-terminus assumed
SMILES: CC(C)C[C@H](NC(=O)[C@H](Cc1ccc(O)cc1)NC(=O)[C@H](CCCCN)NC(=O)[C@H](CO)NC(=O)[C@H](Cc1ccc(O)cc1)NC(=O)[C@H](CCS(=O)(=O)O)NC(=O)[C@H](CO)NC(=O)[C@@H](NC(=O)[C@@H](NC(=O)CNC(=O)[C@H](CCC(N)=O)NC(=O)[C@@H](N)CO)[C@@H](C)O)[C@@H](C)O)C(=O)N[C@@H](CC(=O)O)C(=O)N[C@@H](CO)C(=O)N[C@@H](CCCNC(=N)N)C(=O)N[C@@H](CCCNC(=N)N)C(=O)N[C@@H](C)C(=O)N[C@@H](CCC(N)=O)C(=O)N[C@@H](CC(=O)O)C(=O)N[C@@H](Cc1ccccc1)C(=O)N[C@H](C(=O)N[C@@H](CCC(N)=O)C(=O)N[C@@H](Cc1ccccc1)C(=O)N[C@@H](CC(C)C)C(=O)N[C@@H](CC(C)C)C(=O)N[C@@H](CC(N)=O)C(=O)N[C@H](C(N)=O)[C@@H](C)O)C(C)C
notes: also called Cmpd
B10: [(NSG-2)^9]Glucagon(aa2-29)-NH2 (peptide)
peptide: SQGTFTS[NSG‑2]YSKYLDSRRAQDFVQWLMNT-NH2
modifications: reading uncertain
notes: also called peptide no
B11: [PLA6, hCys(SO3)9]Glucagon(aa6-29)-NH2 (peptide)
peptide: [PhLac]TS[Abu(4-SO3H)]YSKYLDSRRAQDFVQWLMNT-NH2
B12: [hGlu^9]Glucagon(aa2-29)-NH2 (peptide)
peptide: SQGTFTSXYSKYLDSRRAQDFVQWLMNT
modifications: homoglutamic acid at position 9; C-terminal amide
notes: also called peptide no
B13: [desHis^1, hCys^9(SO3^-), Phe^25, Leu^27]Glucagon-NH2 (peptide)
peptide: SQGTFTSXYSKYLDSRRAQDFVQFLLNT
HELM: PEPTIDE1{S.Q.G.T.F.T.S.[O=C([C@H](CCS(=O)(=O)O)N[*:1])[*:2]].Y.S.K.Y.L.D.S.R.R.A.Q.D.F.V.Q.F.L.L.N.T.[am]}$$$$V2.0; N-terminus assumed
SMILES: CC(C)C[C@H](NC(=O)[C@H](Cc1ccc(O)cc1)NC(=O)[C@H](CCCCN)NC(=O)[C@H](CO)NC(=O)[C@H](Cc1ccc(O)cc1)NC(=O)[C@H](CCS(=O)(=O)O)NC(=O)[C@H](CO)NC(=O)[C@@H](NC(=O)[C@H](Cc1ccccc1)NC(=O)[C@@H](NC(=O)CNC(=O)[C@H](CCC(N)=O)NC(=O)[C@@H](N)CO)[C@@H](C)O)[C@@H](C)O)C(=O)N[C@@H](CC(=O)O)C(=O)N[C@@H](CO)C(=O)N[C@@H](CCCNC(=N)N)C(=O)N[C@@H](CCCNC(=N)N)C(=O)N[C@@H](C)C(=O)N[C@@H](CCC(N)=O)C(=O)N[C@@H](CC(=O)O)C(=O)N[C@@H](Cc1ccccc1)C(=O)N[C@H](C(=O)N[C@@H](CCC(N)=O)C(=O)N[C@@H](Cc1ccccc1)C(=O)N[C@@H](CC(C)C)C(=O)N[C@@H](CC(C)C)C(=O)N[C@@H](CC(N)=O)C(=O)N[C@H](C(N)=O)[C@@H](C)O)C(C)C
notes: also called Cmpd

Legend:
glucagon receptor [1] = target: T1, glucagon receptor (UniProt P47871 26-477, limits assumed); test: assay not named in Table F; taken as receptor binding
T1 construct: whole, on cells; also called GR; Glucagon
T1 sequence (P47871 26-477 limits assumed): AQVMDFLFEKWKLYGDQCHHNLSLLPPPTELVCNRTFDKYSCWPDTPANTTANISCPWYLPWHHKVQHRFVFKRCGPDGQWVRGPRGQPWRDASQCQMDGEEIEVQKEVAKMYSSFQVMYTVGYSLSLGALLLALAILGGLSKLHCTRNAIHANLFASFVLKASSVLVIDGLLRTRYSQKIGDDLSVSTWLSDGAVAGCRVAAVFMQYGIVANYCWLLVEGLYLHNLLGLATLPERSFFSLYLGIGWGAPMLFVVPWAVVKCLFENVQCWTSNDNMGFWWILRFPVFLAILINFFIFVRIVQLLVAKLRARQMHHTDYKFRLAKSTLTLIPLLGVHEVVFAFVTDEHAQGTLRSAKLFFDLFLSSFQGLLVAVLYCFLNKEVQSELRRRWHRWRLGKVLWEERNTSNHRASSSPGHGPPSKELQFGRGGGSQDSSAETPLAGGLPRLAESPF

glucagon receptor [2] = target: T1, glucagon receptor; test: cell-based or functional assay
glucagon receptor [3] = target: T1, glucagon receptor; test: cell-based or functional assay; remark: listed apart in the source
glucagon receptor [4] = target: T1, glucagon receptor; test: receptor binding, method not described
glucagon receptor [5] = target: T1, glucagon receptor; test: cell-based or functional assay; remark: listed apart in the source
glucagon receptor [6] = target: T1, glucagon receptor; test: column IC50(nM) beside the cAMP columns of Table H; taken as receptor binding
glucagon receptor [7] = target: T1, glucagon receptor; test: cell-based or functional assay; remark: listed apart in the source
glucagon receptor [8] = target: T1, glucagon receptor; test: receptor binding, method not described; remark: listed apart in the source

Binder	IC50 (glucagon receptor [1]) [nM]	IC50(nM) (cAMP, inhibit Glucagon) 0.1 nM or 0.2 nM (glucagon receptor [3])	IC50 (glucagon receptor [4]) [nM]	also measured
B1	12.7	–	–	–
B2	13.3	–	–	–
B3	–	–	–	Glucagon IC50 (glucagon receptor [2]): 63 nM
B4	983	–	–	–
B5	–	1.32	9	–
B6	–	13.2	15.5	–
B7	–	6.9	13.8	–
B8	–	–	–	cAMP IC50 (glucagon receptor [5]): 147 nM; IC50 (glucagon receptor [6]): 13.2 nM
B9	–	–	–	cAMP Induction EC50 (glucagon receptor [7]): 3210 nM; cAMP Inhibition IC50 (glucagon receptor [7]): 9220 nM; IC50 (glucagon receptor [8]): 53.3 nM
B10	2350	–	–	–
B11	–	40.2	14.2	–
B12	8.1	–	–	–
B13	–	–	–	cAMP Induction EC50 (glucagon receptor [7]): 430 nM; IC50 (glucagon receptor [8]): 13.9 nM

Reference: US20120322725A1 (INDIANA UNIVERSITY RESEARCH AND TECHNOLOGY, published 2012)
